# Source: the supplement of paper PMC10126150
# ± gives the standard deviation of the averaged measurements.
# Tested on: ATP
# Assay: switch fluorescence ratio, 500 uM ATP over buffer (Cy3 cluster intensity, sum of 5 cycles each) (fold (ratio)); higher = stronger signal-on switching upon ATP binding; sequences stand for … in TCGTCGGCAGCGTCAGATGTGTATAAGAGACAGTTTTTTTTTTTTTTTTTTTTTTTTT…TC
# Settings: aptamer strand: ATP DNA aptamer (quencher-CACCTGGGGGAGTATTGCGGAGGAAGG + anchor), 100 nM annealed; ATP concentration: 500 uM
# Outline: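 Imaging in selection buffer was followed by imaging after 15 min with 500 uM ATP at 22 °C, for Cy3-labelled switching-strand clusters annealed to 100 nM quencher-labelled ATP aptamer on a modified Illumina MiSeq flow-cell. Five of these buffer/ATP cycles ran, separated by NaOH stripping and re-annealing. The fluorescence ratio per cluster is summed target-cycle over summed buffer-cycle Cy3 intensity, averaged per switch-domain sequence; clusters outside 100-1000 RFU were removed.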
# 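Further: ATP exposure 15 min at 22 °C before imaging.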
row,Sequence,switch fluorescence ratio
1,TCAAGTTATT,0.973 ± 0.0099
2,TCAAGTTTG,1.011 ± 0.0069
3,TCAATACTTC,1.88 ± 0.19
4,TCAATAGACC,1.05 ± 0.011
5,TCAATAGTAC,1.084 ± 0.0024
6,TCAATCGGGT,0.995 ± 0.053
7,TCAATGGCTA,1.02 ± 0.018
8,TCAATGTTTG,1.008 ± 0.0069
9,TCAATTCAGG,1.01 ± 0.016
10,TCAATTTAGG,0.966 ± 0.014
11,TCACATTTTT,0.99 ± 0.076
12,TCACCCGTTT,0.993 ± 0.016
13,TCACGAATTT,1 ± 0.014
14,TCACGCAGGG,1.03 ± 0.023
15,TCACGCTTGA,1.05 ± 0.052
16,TCACGGACAG,1.3 ± 0.057
17,TCACGGGGGG,1.08 ± 0.1
18,TCACGGTAAT,1.16 ± 0.097
19,TCACGGTAGG,0.999 ± 0.012
20,TCACGGTGTG,0.983 ± 0.02
21,TCACGTTCTG,1.03 ± 0.029
22,TCACGTTGGA,1.01 ± 0.019
23,TCACGTTTTT,1.01 ± 0.031
24,TCACTAAAAA,0.979 ± 0.12
25,TCACTCATTT,1.01 ± 0.019

row,Sequence,switch fluorescence ratio
1,TCACTTAGAA,1.04 ± 0.016
2,TCACTTGAGC,1.011 ± 0.0091
3,TCAGAAATGT,1.01 ± 0.021
4,TCAGAAGGTG,1.59 ± 0.079
5,TCAGAATTTT,1.04 ± 0.02
6,TCAGACAGAT,1.02 ± 0.035
7,TCAGACTCAG,0.992 ± 0.021
8,TCAGACTTTG,0.978 ± 0.022
9,TCAGAGAAGA,0.962 ± 0.023
10,TCAGAGGGCT,0.991 ± 0.018
11,TCAGAGGGTT,1.01 ± 0.031
12,TCAGAGGTTT,0.973 ± 0.024
13,TCAGATATAC,1.581 ± 0.0082
14,TCAGCAGGGG,2.67 ± 1.9
15,TCAGCATGGT,1.04 ± 0.091
16,TCAGCGGGAG,1.012 ± 0.0016
17,TCAGCGGGTT,1.04 ± 0.12
18,TCAGCTCTTC,0.987 ± 0.042
19,TCAGGAGGTG,1.07 ± 0.019
20,TCAGGCAGGC,0.936 ± 0.052
21,TCAGGCGGC,0.992 ± 0.017
22,TCAGGGACTT,0.9845 ± 0.0077
23,TCAGGGGATT,1.02 ± 0.031
24,TCAGGGGCAG,1.06 ± 0.081
25,TCAGGGGGAG,1.02 ± 0.054

row,Sequence,switch fluorescence ratio
1,TCAGGGGGCC,1.02 ± 0.077
2,TCAGGGGTAT,1.03 ± 0.028
3,TCAGGGGTGC,1.09 ± 0.049
4,TCAGGGTAGC,1.02 ± 0.02
5,TCAGGGTCCG,0.961 ± 0.017
6,TCAGTAATCT,1.01 ± 0.058
7,TCAGTACTTT,0.998 ± 0.043
8,TCAGTATGTT,0.965 ± 0.019
9,TCAGTGACGG,1.0248 ± 0.00071
10,TCAGTGAGTA,0.98 ± 0.019
11,TCAGTTATCG,0.985 ± 0.014
12,TCAGTTGGAA,0.977 ± 0.039
13,TCAGTTTACT,0.998 ± 0.025
14,TCAGTTTTAC,1.01 ± 0.052
15,TCATAACTTT,0.984 ± 0.017
16,TCATAAGTGA,0.9848 ± 0.0083
17,TCATACCATA,1.09 ± 0.03
18,TCATACGTCT,0.986 ± 0.09
19,TCATAGGTCA,0.972 ± 0.024
20,TCATATACGA,1.09 ± 0.015
21,TCATATACGC,1.1 ± 0.011
22,TCATATATCT,0.9937 ± 0.0058
23,TCATATGGTT,0.999 ± 0.019
24,TCATATGTTG,1.018 ± 0.0036
25,TCATATTTAT,0.996 ± 0.024

row,Sequence,switch fluorescence ratio
1,TCATCAGGCC,1.02 ± 0.012
2,TCATCAGTGA,0.998 ± 0.028
3,TCATCCGGAT,1.25 ± 0.049
4,TCATCTAGTG,1 ± 0.049
5,TCATCTGTTG,1 ± 0.033
6,TCATGAACAC,1.01 ± 0.05
7,TCATGACGGT,1.011 ± 0.0028
8,TCATGAGCTT,1.039 ± 0.0015
9,TCATGATATG,0.978 ± 0.027
10,TCATGCGGTG,0.967 ± 0.01
11,TCATGCGTAA,2.03 ± 0.069
12,TCATGGGGTA,0.9617 ± 0.004
13,TCATGGGGTG,1.05 ± 0.07
14,TCATGGTCTG,1 ± 0.012
15,TCATGTGAAA,1.03 ± 0.021
16,TCATGTTAAA,0.98647 ± 0.0005
17,TCATGTTTTT,1.05 ± 0.14
18,TCATTAATTG,1.024 ± 0.0078
19,TCATTAGAAA,1 ± 0.013
20,TCATTATGTG,0.98 ± 0.023
21,TCATTATTCT,0.97 ± 0.012
22,TCATTCGGGG,0.973 ± 0.016
23,TCATTCGTCG,0.9712 ± 0.0031
24,TCATTGCTTT,1 ± 0.015
25,TCATTGGTTA,1.02 ± 0.042
